# Measured values taken from IntAct's records for PubMed 18552200.
# B1: DDB1- and CUL4-associated factor homolog 1 (Arabidopsis thaliana (Mouse-ear cress)), Q9M086 (parent)
# chain: MDGQEHAEVPNSMVEDDQSVVAAEAIAELANSTGEPNPEEGEEQSVEDELIAKAQKLMEDITSVANNPNPNILHALSQLLESQESLFLEENGHFSNARGSHNSGKLCILIRENDEFFELISSTFLSENSYSTAVKAASARLLMNCSLTWMYPHVFDDAVTENFKNWVMEEAVKFPGEDSAKKEASDFEMLKTYSTGLLALSLASRGQIVEDVLTSGLSAKLMHYLRVRVLKEPSTSRIHTTETKHVSLKTKEEGRSRVRKIVDTVEGDHVLETDSGREMGQTDVQPDGEFEIDGRDVFNVSGVVDCKIKPGDDNSVRDDPSRHRLNRSKSRGRGRVHEGAPDTEVLLASPRLGRLLVRDRDLSKISDGRNAEDVTVCLGKMKSGIMEIEREDNDECFQGCIIGTKNITDLVKRAVGAAETEARAAHAPDDAAKAAGDAAAELVKTAALEEFKSSGSEEAAVSAATRAAITVIDAAEVSRNPTCVTSDQTTDVSEVSLPDIESLAQLQEKYCIQCLEILGEYVEVLGPVLHEKGVDVCIVLLERTSQLDDRSTVSPLLPDVMKLICALAAHRKFAAMFVERRGILKLLAVPRVSETFYGLSSCLYTIGSLQGIMERVCALPLVVIHQVVKLAIELLDCSQDQARKNSALFFAAAFVFRAILDAFDAQDSLQKLLAILKDAASVRTGANTDRSAPEVMTSSEKQMAFHTCFALRQYFRAHLLLLVDSIRPSRISRGGVPSSMKPNIRAAYKPLDISNEAVDAIFLQLQKDRRLGPTFVKAQWPAVNNFLASSGHVTMLELCQTPPVDRYLHDLLQYAFGVLHIVTSIPDGRKAIAHATLSNNRAGIAVILDAANISNSIVDPEIIQPALNVLINLVCPPPSLSNKPPLAQNHQPVPGQATTRPSTDVAVGTQSTGNAPQTPVAPASSGLVGDRRIFLGAGTGSAGLAAKLEQVYRQAREAVRGNDGIKILLKLLQPRIYVNPPATPDCLRALACRVLLGLARDDTIAQILTKLEVGKSLSELIRDSGGQSSGTDQGRWQAELAQVALELIGIVTNSGHATTLTASDAATPTLRRIERAAIAAATPITYDSKELLLLIHEHLQASGLGDTASALLKEAQLTPLPSSASPSSIAYSTTQEMSTPLAQEQWPSGRANSGFFTSKPKVCAHDEDPNSRSNAALSAKKKHLASSTLEMPTPVAQQQWPSGRANCGFCPSIPKINARDEDPSSRGNAAPSAKKKQLTFSPSFSSQSRKQSFSHDALPQSTQRINCCSNSDPALADTSETAAELVLKNDLDADAQFKTPISFPRKRKLSELRDSSVPGKRIDLGERRNSTFADGSGLQTPASALDANQSGSSRLGQMTPASQLRLPSDPQPSNPERLSLDSLVVQYLKHQHRQCLAPITTLPPVSLLHPHVCPEPKRLLEAPLNMTGRLGTRELQSFYSGVHGNRRDRQFVFSRFKSWRSFRDETALFTCIALLGGTNHIAVGSHAGEIKIFEASSGSMLESVSGHQAPVTLVQPYVSRDTQLLLSSSSSDVQLWDASSITGGPRHSFDGCKAAKFSNSGLQFAALSCEASRKDVLLYDVQTCSPCQKLTDTVTSSRSNPYSLVHFSPCDTLILWNGVLWDRRIPEKVRRFDQFTDYGGGGFHPSRNEVIINSEIWDMRTFKLLRSVPSLDQTAITFNSRGDVIYAMLRRNIEDVMSAVHTRRVKHPLFAAFRTLDAINYSDIATIPVDRCLLDFATEPTDSFLGLITMEDQEDMFSSARMYEIGRRRPTDDDSDPDDDDETEDEDEDDEEEDDLDRILGLAGDNSDSGDDDLSSEDNEDSVSDFDEEADILIDGDFMEELIEGENEDDGNGEDEDDDDDGEMQDFMSSGEEDDYRDNIRSS
# partner: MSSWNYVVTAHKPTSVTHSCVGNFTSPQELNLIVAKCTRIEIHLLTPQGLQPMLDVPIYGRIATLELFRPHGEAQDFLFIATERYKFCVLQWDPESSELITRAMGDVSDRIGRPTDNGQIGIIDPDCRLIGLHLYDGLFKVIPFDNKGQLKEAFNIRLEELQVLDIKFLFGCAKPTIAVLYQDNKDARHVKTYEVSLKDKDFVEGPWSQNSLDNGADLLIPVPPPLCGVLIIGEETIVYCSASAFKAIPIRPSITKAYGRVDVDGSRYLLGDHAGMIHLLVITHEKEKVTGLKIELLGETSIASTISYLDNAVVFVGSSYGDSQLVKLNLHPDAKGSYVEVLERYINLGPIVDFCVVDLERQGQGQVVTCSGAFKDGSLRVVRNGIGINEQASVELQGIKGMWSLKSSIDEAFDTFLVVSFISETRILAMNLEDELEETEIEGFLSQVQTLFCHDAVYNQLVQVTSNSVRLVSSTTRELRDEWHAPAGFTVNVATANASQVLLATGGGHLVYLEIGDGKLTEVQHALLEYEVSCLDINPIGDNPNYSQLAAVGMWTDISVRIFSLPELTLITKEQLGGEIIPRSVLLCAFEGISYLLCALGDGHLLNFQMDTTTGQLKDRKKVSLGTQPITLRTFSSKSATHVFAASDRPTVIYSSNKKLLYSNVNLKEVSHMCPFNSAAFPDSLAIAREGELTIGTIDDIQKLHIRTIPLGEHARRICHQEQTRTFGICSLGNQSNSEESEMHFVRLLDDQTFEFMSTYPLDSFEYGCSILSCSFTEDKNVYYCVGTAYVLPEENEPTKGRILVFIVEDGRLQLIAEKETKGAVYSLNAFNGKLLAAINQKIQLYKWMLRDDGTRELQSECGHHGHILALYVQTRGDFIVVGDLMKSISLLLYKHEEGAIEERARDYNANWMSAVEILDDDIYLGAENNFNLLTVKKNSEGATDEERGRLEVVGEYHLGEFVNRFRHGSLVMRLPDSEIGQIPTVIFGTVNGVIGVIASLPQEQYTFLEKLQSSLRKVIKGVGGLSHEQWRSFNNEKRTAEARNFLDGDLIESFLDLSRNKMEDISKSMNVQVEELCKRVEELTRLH
# Variants of: B1
# Conditions: with ddb1a_arath DDB1A
row,effect of a mutation on the interaction,Variant
1,decreasing interaction,D1622A;R1624A;D1658A;R1660A
2,decreasing interaction,D1658A;R1660A
3,decreasing interaction,D1622A;R1624A
